Our source for the A450 values is US7026446.

The target of assay [1] is biotinylated mouse anti dengue IgG (clone 13C11). Put plainly: Dengue IgM capture ELISA: Prep B 1.0 µg/ml premixed with 13C11-Biotin 1.6 µg/ml, sheep anti human IgM strips, dengue antigen with anti dengue-HRP tracer. On the technique in general: In an ELISA, binding on a coated surface is turned into a signal by an enzyme label.
For assay [2] the target is unchanged. Put plainly: Dengue IgM indirect ELISA: Prep A 1/100 premixed with 13C11-Biotin 1/10,000, dengue 2 antigen plate, HRP sheep anti Human IgM.
Assay [3] has the same target. Put plainly: Dengue IgM indirect ELISA: Prep A 1/1000 premixed with 13C11-Biotin 1/10,000, dengue 2 antigen plate, HRP sheep anti Human IgM.
Assay [4] shares this target. Put plainly: Dengue IgM capture ELISA: Prep A […] premixed with 13C11-Biotin 1.6 µg/ml, sheep anti human IgM strips, dengue antigen with anti dengue-HRP tracer.
For assay [5] the target is unchanged. As to the kind of experiment: Dengue IgM indirect ELISA: Prep A 1/10 premixed with 13C11-Biotin 1/10,000, dengue 2 antigen plate, HRP sheep anti Human IgM.

Values joined by “and” are separate entries in the source; they are usually repeats but may differ in a detail not shown here. Equal entries are not always repeated.

Sequence of Streptavidin-CH3µ Preparation A (chain): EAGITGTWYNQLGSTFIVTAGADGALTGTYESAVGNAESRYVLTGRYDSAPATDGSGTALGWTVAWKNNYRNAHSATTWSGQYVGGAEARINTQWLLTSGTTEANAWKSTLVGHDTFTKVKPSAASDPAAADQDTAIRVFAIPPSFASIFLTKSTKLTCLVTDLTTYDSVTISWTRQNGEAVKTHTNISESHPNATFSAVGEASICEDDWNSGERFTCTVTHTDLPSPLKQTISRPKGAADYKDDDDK
Sequence of Streptavidin-CH3µ Preparation B (chain): as above

In the case of Streptavidin-CH3µ Preparation B, the A450 in assay [1] was 1.2 absorbance and 1.34 absorbance.

As to Streptavidin-CH3µ Preparation A, the A450 is 1.07 absorbance and 1.08 absorbance in assay [2]; 0.212 absorbance and 0.183 absorbance in assay [3]; 1.91 absorbance and 1.85 absorbance in assay [4]; 1.19 absorbance and 1.11 absorbance in assay [5].
